Test results reported in PMC3640046, “Structural Insights into a Wildtype Domain of the Oncoprotein E6 and Its Interaction with a PDZ Domain” (PLoS ONE, 2013).
Where two headings read alike, the source gives them in different places. Residues, ends and D or L forms follow the SMILES beside them. No end group written: not given here.

How the values were obtained:
[1] = type: physicochemical; conditions: N-terminal His6-tag, E. coli BL21(DE3), 20 °C overnight expression with 10 µM Zn2+; cell extract in lysis buffer pH 7.3; centrifugation 10,000 x g, 4 °C, 30 min; Coomassie stained SDS-PAGE
Description: Assessment of solubility of amino-terminally His6-tagged, recombinant E6 constructs derived from the high-risk types 16, 18, 26, 31, 45, 51, 59 and 97 as well as for the non-tumorigenic cutaneous type 1a was performed after bacterial expression in presence of 10 µM of Zn^2+ as solubility of E6 constructs is dependent on low µM concentrations of zinc. None of the wild-type sequence full-length E6 constructs nor their respective N-terminal zinc-binding domain (ZBD) turned out to be soluble (Table S1). […] The soluble constructs are denoted as E6Z2 (e.g. 51Z2 stands for the second, i.e. C-terminal, ZBD of HPV 51 E6). […]

hDlgPDZ2 [2] = target: T1, hDlgPDZ2 (Homo sapiens, UniProt Q12959); assay: Surface plasmon resonance (SPR) of hDlgPDZ2 with E6-derived peptides; type: binding; conditions: for kon: read-out: ka
T1 construct: host or cells: E. coli BL21 (DE3)
Description: Figure 5 51Z2 derived E6CT6 peptide versus E6CT11 peptide binding to hDlgPDZ2. SPR data. A E6CT6, B E6CT11. Sensorgrams of E6CT6 and E6CT11 binding injected in triplicate (black lines) are shown overlaid with the best fit derived from a 1∶1 interaction model including a mass transport term (orange lines). Peptide concentrations of 3.125, 6.25, 12.5, 25, 50, 100 and 200 µM are shown. The binding parameters were obtained by kinetic analysis of association and dissociation phases (left panels) or by steady state analysis (right panels) utilizing signals of plateaus depicted in the corresponding left panel.
A detailed description of methods is provided in Text S1. Briefly, recombinant proteins were generated in E. coli BL21 (DE3). Cells were disrupted and protein solubility in cell-lysates was assessed. Soluble proteins were FPLC-purified and initially characterized by CD spectroscopy, dynamic light scattering, gel filtration chromatography and NMR spectroscopy. The affinity of E6-derived peptides to hDlgPDZ2 was elucidated utilizing Surface Plasmon Resonance. hDlgPDZ2 was generated by bacterial expression and FPLC purification. The generation of the labeled E6CT11 peptide was performed as previously described. The purified, monomeric 51Z2 and the purified, monomeric hDlgPDZ2 in complex with purified E6CT11 were subsequently structurally characterized by standard solution state NMR techniques.
[1H-‐15N]-‐HSQC-‐spectra

hDlgPDZ2 [3] = target: T1, hDlgPDZ2; conditions: cited from earlier work
Description: 51Z2 contains a carboxy-terminal PDZ-BM and the full-length protein causes the degradation of hDlg in vitro [32].

hDlg = conditions: in vitro degradation assay; cited from earlier work
Description: One PDZ domain containing protein targeted by E6 for degradation in vivo is the multi-domain protein hDlg (human Dlg/hDlg1/SAP-97). […] Human Dlg is part of the Scribble polarity complex that controls basolateral polarity and it is required for adherens junction formation and differentiation of epithelial cells. Human Dlg is expressed in human keratinocytes and localizes to nuclear, cytoplasmic, membrane-associate ...

[4] = target: T2, second PDZ domain of human Dlg (hDlg/hDlg1/SAP-97) (human, UniProt Q12959 318-406, 15N labelled in the titrations with the peptides); assay: NMR titration; [1H,15N]-HSQC of 100 µM 15N labeled 51Z2 without or with 3 fold excess of unlabeled hDlgPDZ2; slow exchange on the NMR time scale; conditions: both partners purified
T2 construct: also called hDlgPDZ2; PDZ domain 2 of hDlg; source: bacterial expression, FPLC purification

[5] = target: T3, second PDZ domain of human Dlg (hDlg/hDlg1/SAP-97) (human, UniProt Q12959 318-406, 15N labelled in the titrations with the peptides); assay: SPR; kinetic analysis
T3 chain: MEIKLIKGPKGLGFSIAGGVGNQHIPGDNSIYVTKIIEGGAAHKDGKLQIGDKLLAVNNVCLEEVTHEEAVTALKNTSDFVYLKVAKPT

[6] = target: T2, second PDZ domain of human Dlg …; assay: SPR; peptides injected in triplicate at 3.125, 6.25, 12.5, 25, 50, 100 and 200 µM; kinetic analysis (1:1 interaction model with a mass transport term) and steady state analysis; conditions: both partners purified
[7] = kinetic analysis, 1:1 interaction model including mass transport term, 25 °C, pH 7.4
[8] = kinetic analysis, 1:1 interaction model including mass transport term, Biacore 2000, 25 °C, His6-tagged hDlgPDZ2 on NTA chip, peptide 3.125-200 µM, 150 mM NaCl, 10 mM HEPES, 3 mM EDTA, 0.005% polysorbate 20, pH 7.4, injected in triplicate, read-out: KD (kinetic analysis)

**Q.** With “18 E6FL: full-length HPV 18 E6, His6-tagged” as the molecule, how does the “solubility of recombinant E6 construct” value [1] read?
**A.** Its value is “Insoluble”.

**Q.** Which Kd (hDlgPDZ2 [2]; SPR, 25 °C, pH 7.4, read-out: Kd) does the source give for `CC(=O)N[C@@H](CCC(N)=O)C(=O)N[C@@H](CCCNC(=N)N)C(=O)N[C@H](C(=O)N[C@@H](CCCNC(=N)N)C(=O)N[C@@H](CCC(N)=O)C(=O)N[C@@H](CCCNC(=N)N)C(=O)N[C@@H](CC(N)=O)C(=O)N[C@@H](CCC(=O)O)C(=O)N[C@H](C(=O)N[C@@H](CCC(N)=O)C(=O)N[C@H](C(=O)O)C(C)C)[C@@H](C)O)[C@@H](C)O` [E6CT11, Ac-QRTRQRNETQV] (Ac-QRTRQRNETQV-OH) here?
**A.** The Kd was less than 10 µM.

**Q.** What about the kon (hDlgPDZ2 [2]; [7]) of the same molecule?
**A.** Its kon is 104000 M⁻¹ s⁻¹.

**Q.** And the Kd (hDlgPDZ2 [2]; [8])?
**A.** Its Kd is 9.79 ± 0.03 µM.

**Q.** And the Kd (hDlgPDZ2 [2]; steady state analysis utilizing signals of plateaus, Biacore 2000, 25 °C, His6-tagged hDlgPDZ2 on NTA chip, peptide 3.125-200 µM, 150 mM NaCl, 10 mM HEPES, 3 mM EDTA, 0.005% polysorbate 20, pH 7.4, injected in triplicate, read-out: KD (steady state analysis))?
**A.** The Kd was 9.63 ± 0.02 µM.

**Q.** For “HPV 18 E6: E6 oncoprotein of high-risk HPV 18”, which “interaction with hDlgPDZ2” value (hDlgPDZ2 [3]) is on record?
**A.** Its value is “interact with hDlgPDZ2”.

**Q.** And the “E6 dependent reduction of hDlg levels” value (hDlg)?
**A.** The value was “reduction of hDlg levels”.

**Q.** With `CC(=O)N[C@@H](CCCNC(=N)N)C(=O)N[C@@H](CC(N)=O)C(=O)N[C@@H](CCC(=O)O)C(=O)N[C@H](C(=O)N[C@@H](CCC(N)=O)C(=O)N[C@H](C(=O)O)C(C)C)[C@@H](C)O` [E6CT6, Ac-RNETQV] (Ac-RNETQV-OH) as the molecule, how does the kon (hDlgPDZ2 [2]; [7]) read?
**A.** Its kon is 54000 M⁻¹ s⁻¹.

**Q.** What about the Kd (hDlgPDZ2 [2]; [8]) of the same molecule?
**A.** Its Kd is 28.42 ± 0.05 µM.

B1: 45 E6FL: full-length HPV 45 E6, His6-tagged (protein, UniProt P21735 1-158, looked up)
chain: MARFDDPKQRPYKLPDLCTELNTSLQDVSIACVYCKATLERTEVYQFAFKDLCIVYRDCIAYAACHKCIDFYSRIRELRYYSNSVYGETLEKITNTELYNLLIRCLRCQKPLNPAEKRRHLKDKRRFHSIAGQYRGQCNTCCDQARQERLRRRRETQV
modifications: full-length His6 tag
notes: full-length HPV 45 E6, His6-tagged
**Q.** For B1, which “solubility of recombinant E6 construct” value [1] is on record?
**A.** The value was “Insoluble”.

B2: 31 (co) E6FL: full-length HPV 31 E6, His6-tagged (protein, UniProt P17386 1-149, looked up)
chain: MFKNPAERPRKLHELSSALEIPYDELRLNCVYCKGQLTETEVLDFAFTDLTIVYRDDTPHGVCTKCLRFYSKVSEFRWYRYSVYGTTLEKLTNKGICDLLIRCITCQRPLCPEEKQRHLDKKKRFHNIGGRWTGRCIACWRRPRTETQV
modifications: full-length His6 tag
notes: full-length HPV 31 E6, His6-tagged
**Q.** For B2, which “solubility of recombinant E6 construct” value [1] is on record?
**A.** The value was “Insoluble”.

B3: second (C-terminal) zinc-binding domain of HPV 51 E6 (domain or fragment)
chain: GSHMSRSVYGTTLEAITKKSLYDLSIRCHRCQRPLGPEEKQKLVDEKKRFHEIAGRWTGQCANCWQRTRQRNETQV
modifications: 15N labelled in the titration with hDlgPDZ2; binds one zinc ion
notes: source: E. coli BL21 (DE3), FPLC-purified
**Q.** Does B3 bind [4]?
**A.** Result: binds

**Q.** What does the source list for Ac-RNETQV (also called E6CT6 peptide) [E6CT6, N-terminally truncated 6mer peptide of the HPV 51 E6 C-terminus (Ac-RNETQV)]?
**A.** koff [5]: 1.53 s⁻¹; Kd [6]: 28.3 µM

B4: E6CT11, 11mer peptide representing the complete disordered C-terminus of HPV 51 E6 (Ac-QRTRQRNETQV) (peptide)
peptide: Ac-QRTRQRNETQV
notes: HPV 51 E6 residues 141 to 151; also called E6CT11 peptide
**Q.** Which koff [5] does the source give for B4 here?
**A.** Its koff is 1.01 s⁻¹.

**Q.** And the Kd [6]?
**A.** The Kd was 9.6 µM.

**Q.** What about the “fold change of the association rate against E6CT6” value [6] of the same molecule?
**A.** Its value is roughly 2 fold.

B5: 16 (co) E6FL: full-length HPV 16 E6, His6-tagged (protein, UniProt P03126 1-158, looked up)
chain: MHQKRTAMFQDPQERPRKLPQLCTELQTTIHDIILECVYCKQQLLRREVYDFAFRDLCIVYRDGNPYAVCDKCLKFYSKISEYRHYCYSLYGTTLEQQYNKPLCDLLIRCINCQKPLCPEEKQRHLDKKQRFHNIRGRWTGRCMSCCRSSRTRRETQL
modifications: full-length His6 tag
notes: full-length HPV 16 E6, His6-tagged
**Q.** With B5 as the molecule, how does the “solubility of recombinant E6 construct” value [1] read?
**A.** The value was “Insoluble”.

B6: HPV 16 E6: E6 oncoprotein of high-risk HPV 16 (protein, UniProt P03126 1-158, looked up)
Protein E6: B5 chain
**Q.** Which “interaction with hDlgPDZ2” value (hDlgPDZ2 [3]) does the source give for B6 here?
**A.** The value was “interact with hDlgPDZ2”.

**Q.** And the “E6 dependent reduction of hDlg levels” value (hDlg)?
**A.** The value was “reduction of hDlg levels”.
